Key:
Assay in all cases: cell-based or functional assay
[1] = molecular target: HIV-1 Env of NAC_92RW020 (HIV-1)
[2] = molecular target: HIV-1 Env of NAC_IAVIC22 (HIV-1)
[3] = molecular target: HIV-1 Env of NAC_JRCSF (HIV-1) (UniProt P20871)
[4] = molecular target: HIV-1 Env of NAC_SF162 (HIV-1)
[5] = molecular target: HIV-1 Env of NAC_SS1196.1 (HIV-1)
[6] = molecular target: HIV-1 Env of NAC_WITO.33 (HIV-1)
[7] = molecular target: HIV-1 Env of NIH-003_SC422661.8 (HIV-1)
[8] = molecular target: HIV-1 Env of NIH-006_AC10.0.29 (HIV-1)
[9] = molecular target: HIV-1 Env of NIH-009_1006.11.C3.1601 (HIV-1)
[10] = molecular target: HIV-1 Env of NIH-015_62357.14.D3.4589 (HIV-1)
[11] = molecular target: HIV-1 Env of NIH-022_ZM233M.PB6 (HIV-1)
[12] = molecular target: HIV-1 Env of NIH-027_CAP45.G3 (HIV-1)
[13] = molecular target: HIV-1 Env of NIH-034_Ce0393 C3 (HIV-1)
[14] = molecular target: HIV-1 Env of NIH-045_7030102001E5(Rev.) (HIV-1)
[15] = molecular target: HIV-1 Env of NIH-050_CNE21 (HIV-1)
[16] = molecular target: HIV-1 Env of NIH-056_Q168ENVa2 (HIV-1)
[17] = molecular target: HIV-1 Env of NIH-072_R3265.c06 (HIV-1)
[18] = molecular target: HIV-1 Env of NIH-097_6811.v7.c18 (HIV-1)
[19] = molecular target: HIV-1 Env of NIH-103_0815.v3.c3 (HIV-1)
[20] = molecular target: HIV-1 Env of NIH-106_T250.4 (HIV-1)
[21] = molecular target: HIV-1 Env of NIH-107_T251.18 (HIV-1)
[22] = molecular target: HIV-1 Env of isolate NIH-089_3016.v5.c45 (HIV-1)
[23] = molecular target: HIV-1 Env of isolate NIH-090_A07412M1.vrc12 (HIV-1)
[24] = molecular target: HIV-1 Env of pseudovirus NAC_IAVIC22 (HIV-1)
[25] = molecular target: HIV-1 Env of pseudovirus NAC_REJO.67 (HIV-1)
[26] = molecular target: HIV-1 Env of pseudovirus NAC_RHPA4.7 (HIV-1)
[27] = molecular target: HIV-1 Env of pseudovirus NAC_SS1196.1 (HIV-1)
[28] = molecular target: HIV-1 Env of pseudovirus NIH-001_6535.3 (HIV-1)
[29] = molecular target: HIV-1 Env of pseudovirus NIH-015_62357.14.D3.4589 (HIV-1)
[30] = molecular target: HIV-1 Env of pseudovirus NIH-016_SC05.8C11.2344 (HIV-1)
[31] = molecular target: HIV-1 Env of pseudovirus NIH-021_ZM214M.PL15 (HIV-1)
[32] = molecular target: HIV-1 Env of pseudovirus NIH-024_ZM53M.PB12 (HIV-1)
[33] = molecular target: HIV-1 Env of pseudovirus NIH-029_HIV-001428.2.42 (HIV-1)
[34] = molecular target: HIV-1 Env of pseudovirus NIH-032_HIV-16845.2.22 (HIV-1)
[35] = molecular target: HIV-1 Env of pseudovirus NIH-043_ZM249M.B10 (HIV-1)
[36] = molecular target: HIV-1 Env of pseudovirus NIH-050_CNE21 (HIV-1)
[37] = molecular target: HIV-1 Env of pseudovirus NIH-055_CNE58 (HIV-1)
[38] = molecular target: HIV-1 Env of pseudovirus NIH-065_191955 A11 (HIV-1)
[39] = molecular target: HIV-1 Env of pseudovirus NIH-077_BJOX009000.02.4 (HIV-1)
[40] = molecular target: HIV-1 Env of pseudovirus NIH-080_BJOX025000.01.1 (HIV-1)
[41] = molecular target: HIV-1 Env of pseudovirus NIH-083_P0402 c2 11 (clade G) (HIV-1)
[42] = molecular target: HIV-1 Env of pseudovirus NIH-090_A07412M1.vrc12 (clade D) (HIV-1)
[43] = molecular target: HIV-1 Env of pseudovirus NIH-091_231965.c01 (clade D) (HIV-1)
[44] = molecular target: HIV-1 Env of pseudovirus NIH-107_T251.18 (HIV-1)
[45] = molecular target: HIV-1 Env of pseudovirus NIH-117_T278.5 (HIV-1)
[46] = molecular target: envelope protein of control pseudovirus NAC_AMLV

Chain of HIV-1 Env of NAC_JRCSF (HIV-1) (P20871 32-848 limits assumed): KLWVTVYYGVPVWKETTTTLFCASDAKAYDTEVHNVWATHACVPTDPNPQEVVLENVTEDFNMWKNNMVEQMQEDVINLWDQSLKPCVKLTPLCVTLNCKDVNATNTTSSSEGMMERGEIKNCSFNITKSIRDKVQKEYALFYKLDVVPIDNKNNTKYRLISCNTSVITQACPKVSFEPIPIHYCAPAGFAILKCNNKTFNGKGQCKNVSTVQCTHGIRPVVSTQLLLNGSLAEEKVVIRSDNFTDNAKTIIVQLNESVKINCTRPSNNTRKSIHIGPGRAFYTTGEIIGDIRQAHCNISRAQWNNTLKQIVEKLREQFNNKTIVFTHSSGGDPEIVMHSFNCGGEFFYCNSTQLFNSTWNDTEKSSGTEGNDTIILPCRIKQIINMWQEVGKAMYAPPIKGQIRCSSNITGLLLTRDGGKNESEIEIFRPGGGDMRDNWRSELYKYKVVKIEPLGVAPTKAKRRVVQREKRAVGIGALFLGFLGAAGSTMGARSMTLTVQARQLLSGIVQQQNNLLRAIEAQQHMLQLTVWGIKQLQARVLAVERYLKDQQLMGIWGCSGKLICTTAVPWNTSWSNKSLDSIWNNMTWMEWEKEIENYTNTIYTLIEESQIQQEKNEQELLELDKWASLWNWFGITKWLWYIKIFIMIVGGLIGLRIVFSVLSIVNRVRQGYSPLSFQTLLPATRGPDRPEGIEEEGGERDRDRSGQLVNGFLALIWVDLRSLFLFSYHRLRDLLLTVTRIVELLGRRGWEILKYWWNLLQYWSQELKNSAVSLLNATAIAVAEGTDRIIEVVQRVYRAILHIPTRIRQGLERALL

4E10 (antibody)
IC80 neutralization [1]: 9.61 µg/mL
IC80 neutralization [2]: 6.11 µg/mL
IC80 neutralization [3]: 3.92 µg/mL
IC80 neutralization [4]: 8.26 µg/mL
IC80 neutralization [5]: 3.96 µg/mL
IC80 neutralization [6]: 1.82 µg/mL
IC80 neutralization [7]: 11.1 µg/mL
IC80 neutralization [8]: 2.73 µg/mL
IC80 neutralization [9]: 22.7 µg/mL
IC80 neutralization [10]: 11.6 µg/mL
IC80 neutralization [11]: 4.99 µg/mL
IC80 neutralization [12]: 4.19 µg/mL
IC80 neutralization [13]: 2.56 µg/mL
IC80 neutralization [14]: 15.7 µg/mL
IC80 neutralization [15]: 2.15 µg/mL
IC80 neutralization [16]: 15.1 µg/mL
IC80 neutralization [17]: 2 µg/mL
IC80 neutralization [18]: 17 µg/mL
IC80 neutralization [19]: 6.31 µg/mL
IC80 neutralization [20]: 3.42 µg/mL
IC80 neutralization [21]: 3.97 µg/mL
IC80 (µg/ml), TZM-bl pseudovirus neutralization [22]: 3.73 µg/mL
IC80 (µg/ml), TZM-bl pseudovirus neutralization [23]: 10.4 µg/mL
neutralization IC50 [24]: 1.21 µg/mL
neutralization IC50 [25]: 1.87 µg/mL
neutralization IC50 [26]: 4.66 µg/mL
neutralization IC50 [27]: 0.99 µg/mL
neutralization IC50 [28]: 0.519 µg/mL
neutralization IC50 [29]: 2.87 µg/mL
neutralization IC50 [30]: 0.828 µg/mL
neutralization IC50 [31]: 5.31 µg/mL
neutralization IC50 [32]: 10.4 µg/mL
neutralization IC50 [33]: 5.54 µg/mL
neutralization IC50 [34]: 0.097 µg/mL
neutralization IC50 [35]: 1.11 µg/mL
neutralization IC50 [36]: 0.513 µg/mL
neutralization IC50 [37]: 0.563 µg/mL
neutralization IC50 [38]: 0.011 µg/mL
neutralization IC50 [39]: 0.389 µg/mL
neutralization IC50 [40]: 0.377 µg/mL
IC50 (µg/ml), TZM-bl cell neutralization assay, pseudovirus [41]: 0.084 µg/mL
IC50 (µg/ml), TZM-bl cell neutralization assay, pseudovirus [42]: 2.58 µg/mL
IC50 (µg/ml), TZM-bl cell neutralization assay, pseudovirus [43]: 13.8 µg/mL
neutralization IC50 [44]: 0.905 µg/mL
neutralization IC50 [45]: 1.48 µg/mL
IC50 (µg/ml), TZM-bl cell neutralization assay, control pseudovirus [46]: > 50 µg/mL
IC80 (µg/ml), TZM-bl pseudovirus neutralization [46]: > 50 µg/mL

PGZL1 (antibody)
IC80 neutralization [1]: > 50 µg/mL
IC80 neutralization [2]: > 50 µg/mL
IC80 neutralization [3]: > 50 µg/mL
IC80 neutralization [4]: 48.6 µg/mL
IC80 neutralization [5]: 22.2 µg/mL
IC80 neutralization [6]: 15.1 µg/mL
IC80 neutralization [7]: > 50 µg/mL
IC80 neutralization [8]: 18.8 µg/mL
IC80 neutralization [9]: > 50 µg/mL
IC80 neutralization [10]: > 50 µg/mL
IC80 neutralization [11]: 23.6 µg/mL
IC80 neutralization [12]: > 50 µg/mL
IC80 neutralization [13]: > 50 µg/mL
IC80 neutralization [14]: > 50 µg/mL
IC80 neutralization [15]: 17.8 µg/mL
IC80 neutralization [16]: > 50 µg/mL
IC80 neutralization [17]: > 50 µg/mL
IC80 neutralization [18]: > 50 µg/mL
IC80 neutralization [19]: > 50 µg/mL
IC80 neutralization [20]: > 50 µg/mL
IC80 neutralization [21]: > 50 µg/mL
IC80 (µg/ml), TZM-bl pseudovirus neutralization [22]: 10.6 µg/mL
IC80 (µg/ml), TZM-bl pseudovirus neutralization [23]: > 50 µg/mL
neutralization IC50 [24]: 15.2 µg/mL
neutralization IC50 [25]: 10.7 µg/mL
neutralization IC50 [26]: > 50 µg/mL
neutralization IC50 [27]: 5.4 µg/mL
neutralization IC50 [28]: 1.42 µg/mL
neutralization IC50 [29]: 27.2 µg/mL
neutralization IC50 [30]: 5.77 µg/mL
neutralization IC50 [31]: 28.7 µg/mL
neutralization IC50 [32]: > 50 µg/mL
neutralization IC50 [33]: > 50 µg/mL
neutralization IC50 [34]: 0.424 µg/mL
neutralization IC50 [35]: 6.26 µg/mL
neutralization IC50 [36]: 4.23 µg/mL
neutralization IC50 [37]: 3.55 µg/mL
neutralization IC50 [38]: 1.89 µg/mL
neutralization IC50 [39]: 3.97 µg/mL
neutralization IC50 [40]: 7.13 µg/mL
IC50 (µg/ml), TZM-bl cell neutralization assay, pseudovirus [41]: 8.29 µg/mL
IC50 (µg/ml), TZM-bl cell neutralization assay, pseudovirus [42]: 13.9 µg/mL
IC50 (µg/ml), TZM-bl cell neutralization assay, pseudovirus [43]: > 50 µg/mL
neutralization IC50 [44]: 43 µg/mL
neutralization IC50 [45]: 23.5 µg/mL
IC50 (µg/ml), TZM-bl cell neutralization assay, control pseudovirus [46]: > 50 µg/mL
IC80 (µg/ml), TZM-bl pseudovirus neutralization [46]: > 50 µg/mL
